Read-outs that look alike come from different tables or passages of the source.
Tests used:
[1] = target: voltage-gated potassium ion channel KvAP (Aeropyrum pernix) (UniProt Q9YDF8); test: native gel or EMSA; detergent-free clear native PAGE (CNE) of Glyco-DIBMA nanodiscs, 4 °C, fluorescence imaging
[2] = target: voltage-gated potassium ion channel KvAP (Aeropyrum pernix) (UniProt Q9YDF8); test: SEC; Glyco-DIBMA native nanodiscs with labelled protein after Ni2+ affinity chromatography; absorbance at 280, 650 and 665 nm; oligomer peak at 10-11 mL
[3] = target: voltage-gated potassium ion channel KvAP (Aeropyrum pernix) (UniProt Q9YDF8); test: native gel or EMSA; high-resolution clear native PAGE (hrCNE) with 0.01% DDM and 0.05% sodium deoxycholate, Glyco-DIBMA nanodiscs, 4 °C, fluorescence imaging
[4] = target: voltage-gated potassium ion channel KvAP (Aeropyrum pernix) (UniProt Q9YDF8); test: fluorescence correlation spectroscopy (molecular brightness per nanodisc); Alexa Fluor 647-labelled protein in Glyco-DIBMA native nanodiscs; oligomer fraction after SEC and bands resolubilised from native gels; brightness compared with the free dye (ruler, 7.5 kHz); nM concentrations; standard buffer 150 mM NaCl or KCl, 50 mM Tris-HCl, pH 8
[5] = target: voltage-gated potassium ion channel KvAP (Aeropyrum pernix) (UniProt Q9YDF8); test: as above; remark: listed apart in the source
[6] = target: voltage-gated sodium ion channel NavMs; test: SEC; Glyco-DIBMA native nanodiscs with labelled protein after Ni2+ affinity chromatography; absorbance at 280, 650 and 665 nm; oligomer peak at 10-11 mL
[7] = target: voltage-gated sodium ion channel NavMs; test: native gel or EMSA; high-resolution clear native PAGE (hrCNE) with 0.01% DDM and 0.05% sodium deoxycholate, Glyco-DIBMA nanodiscs, 4 °C, fluorescence imaging
[8] = target: voltage-gated sodium ion channel NavMs; test: fluorescence correlation spectroscopy (molecular brightness per nanodisc); Alexa Fluor 647-labelled protein in Glyco-DIBMA native nanodiscs; oligomer fraction after SEC and bands resolubilised from native gels; brightness compared with the free dye (ruler, 7.5 kHz); nM concentrations; standard buffer 150 mM NaCl or KCl, 50 mM Tris-HCl, pH 8
[9] = target: the molecule itself; test: SEC; Glyco-DIBMA native nanodiscs with labelled protein after Ni2+ affinity chromatography; absorbance at 280, 650 and 665 nm; oligomer peak at 10-11 mL
[10] = target: the molecule itself; test: fluorescence correlation spectroscopy (molecular brightness per nanodisc); Alexa Fluor 647-labelled protein in Glyco-DIBMA native nanodiscs; oligomer fraction after SEC and bands resolubilised from native gels; brightness compared with the free dye (ruler, 7.5 kHz); nM concentrations; standard buffer 150 mM NaCl or KCl, 50 mM Tris-HCl, pH 8

Molecule: voltage-gated potassium ion channel KvAP (from UniProt Q9YDF8 1-295) (natural protein)
- stoichiometry N [1]: 4
- stoichiometry N [2]: 4
- stoichiometry N [3]: 4
- ratio of molecular brightness to the free dye (taken as the oligomeric state) [4]: 5.5 fold
- ratio of molecular brightness to the free dye (taken as the oligomeric state) [5]: 4 fold

Molecule: voltage-gated sodium ion channel NavMs (natural protein)
- stoichiometry N [6]: 4
- stoichiometry N [7]: 4
- ratio of molecular brightness to the free dye (taken as the oligomeric state) [8]: 3 fold

B1: glycerol uptake facilitator protein (GlpF) (natural protein, UniProt P0AER0 1-281, looked up)
chain: MSQTSTLKGQCIAEFLGTGLLIFFGVGCVAALKVAGASFGQWEISVIWGLGVAMAIYLTAGVSGAHLNPAVTIALWLFACFDKRKVIPFIVSQVAGAFCAAALVYGLYYNLFFDFEQTHHIVRGSVESVDLAGTFSTYPNPHINFVQAFAVEMVITAILMGLILALTDDGNGVPRGPLAPLLIGLLIAVIGASMGPLTGFAMNPARDFGPKVFAWLAGWGNVAFTGGRDIPYFLVPLFGPIVGAIVGAFAYRKLIGRHLPCDICVVEEKETTTPSEQKASL
modifications: Alexa Fluor 647 maleimide on cysteine (six cysteine positions, not all can be labeled)
notes: glycerol uptake facilitator protein GlpF, a bacterial aquaporin; Studied inside Glyco-DIBMA native nanodiscs; A monomeric fraction was also found; also called bacterial aquaporin; aqua(glycero)porin GlpF
- stoichiometry N [9]: 4

B2: urea channel HpUreI L134C (natural protein)
chain: MLGLVLLYVGIVLISNGICGLTKVDPKSTAVMNFFVGGLSIICNIVVITYSALHPTAPVEGAEDIAQVSHHLTSFYGPATGLLFGFTYLYAAINHTFGLDWRPYSWYSLFVAINTIPAAILSHYSDMLDDHKVCGITEGDWWAIIWLAWGVLWLTAFIENILKIPLGKFTPWLAIIEGILTAWIPAWLLFIQHWV
modifications: Alexa Fluor 647 maleimide on the cysteine of L134C
notes: urea channel UreI (HpUreI); Studied inside Glyco-DIBMA native nanodiscs; also called bacterial hexameric urea channel
- stoichiometry N [9]: 6
- ratio of molecular brightness to the free dye (taken as the oligomeric state) [10]: 6 fold

From paper PMC12355471, “Clear Native Gel Electrophoresis for the Purification of Fluorescently Labeled Membrane Proteins in Native Nanodiscs” (Analytical Chemistry, 2025)
